Results published in patent publication US20200332281 (published 2020).

B1: T_apt.4 (= T_beads_re_apt.8) (ssDNA)
DNA: AGCAGCACAGAGGTCAGATGTTGGTGGGGTGGCTTTGGGTATTTACTTGGCCTATGCGTGCTACCGTGAA
B2: T_apt.3 (= T_beads_apt.1, T_beads_re_apt.7) (ssDNA)
DNA: AGCAGCACAGAGGTCAGATGGATGGTGTAGGTTGGGAGAGGCTCAGTGCCCCTATGCGTGCTACCGTGAA
B3: T_apt.6 (ssDNA)
DNA: AGCAGCACAGAGGTCAGATGGTTGGGTAGGGTTGGATAGGGGCAAGTAGACCTATGCGTGCTACCGTGAA
B4: T_beads_re_apt.9 (ssDNA)
DNA: AGCAGCACAGAGGTCAGATGGGGGATGGTTAGGGTGGCTTAATATTGACCCCTATGCGTGCTACCGTGAA
B5: T_apt.5 (ssDNA)
DNA: AGCAGCACAGAGGTCAGATGGTGGATTTGGGTGGATTGGTATGAACTGACCCTATGCGTGCTACCGTGAA
B6: T_apt.2 (= T_beads_apt.5) (ssDNA)
DNA: AGCAGCACAGAGGTCAGATGGAGTCGGGTGGCTATTGGGTATGGACCGTGCCTATGCGTGCTACCGTGAA

These binders were tested against T1, thrombin (UniProt P00734;P00734 P00734:328-363,P00734:364-622) (assay: SPR; HBS-EP, 150 mM NaCl, pH 7.0).

| Binder | Kd [nM] |
| --- | --- |
| B1 | 81 |
| B2 | 76 |
| B3 | 55 |

What follows are binders tested against T1, thrombin (assay: SPR; no specific response).

| Binder | binding result |
| --- | --- |
| B4 | no binding |
| B5 | no binding |
| B6 | no binding |
